# Data from publication PMC11405395 (The EMBO Journal, 2024).
# T1: GINS tetramer (Sld5, Psf1, Psf2, Psf3), S. cerevisiae (S. cerevisiae, UniProt Q03406 1-294; Q12488 1-208; P40359 1-213; Q12146 1-194)
# T1 construct: Sld5, GINS subunit, S. cerevisiae; Psf1, GINS subunit, S. cerevisiae; Psf2, GINS subunit, S. cerevisiae; Psf3, GINS subunit, S. cerevisiae; pJL005 with TwinStrep-Psf3; also called tetrameric GINS complex; source: purified as previously described (Yeeles et al, 2015; Lewis et al, 2022); copies: + + +
# T1 sequence (looked up) 1: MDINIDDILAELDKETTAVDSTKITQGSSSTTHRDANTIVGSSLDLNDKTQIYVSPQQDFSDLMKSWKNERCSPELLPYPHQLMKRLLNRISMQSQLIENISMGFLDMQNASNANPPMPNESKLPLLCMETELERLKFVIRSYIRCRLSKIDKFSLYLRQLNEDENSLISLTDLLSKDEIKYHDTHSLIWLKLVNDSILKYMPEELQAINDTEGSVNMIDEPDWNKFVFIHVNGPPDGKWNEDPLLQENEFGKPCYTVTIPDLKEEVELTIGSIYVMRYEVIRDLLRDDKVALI
# T1 sequence (looked up) 2: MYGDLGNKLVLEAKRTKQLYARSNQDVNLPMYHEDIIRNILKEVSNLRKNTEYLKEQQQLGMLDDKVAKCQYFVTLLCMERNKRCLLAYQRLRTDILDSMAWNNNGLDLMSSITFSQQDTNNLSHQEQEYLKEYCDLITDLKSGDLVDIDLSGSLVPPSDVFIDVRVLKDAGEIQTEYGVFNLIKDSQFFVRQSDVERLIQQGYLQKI
# T1 sequence (looked up) 3: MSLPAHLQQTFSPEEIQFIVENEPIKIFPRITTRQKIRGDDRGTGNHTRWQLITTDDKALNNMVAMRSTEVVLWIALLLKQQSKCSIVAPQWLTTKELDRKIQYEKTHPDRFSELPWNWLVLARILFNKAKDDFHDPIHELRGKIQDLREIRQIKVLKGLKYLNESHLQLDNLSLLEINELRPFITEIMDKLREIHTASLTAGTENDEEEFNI
# T1 sequence (looked up) 4: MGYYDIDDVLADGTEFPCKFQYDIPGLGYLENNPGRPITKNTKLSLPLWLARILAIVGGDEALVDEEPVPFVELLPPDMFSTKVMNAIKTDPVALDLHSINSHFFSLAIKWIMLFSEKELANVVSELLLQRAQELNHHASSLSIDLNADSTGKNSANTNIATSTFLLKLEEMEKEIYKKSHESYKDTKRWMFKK
# B1: Rrm3-6A (Rrm3 F89A, Q93A, F96A, D99A, E104A, L108A) (enzyme, S. cerevisiae, UniProt P38766 1-723, looked up)
# chain: MFRSHASGNKKQWSKRSSNGSTPAASASGSHAYRQQTLSSFFMGCGKKSAAASKNSTTIIDLESGDEGNRNITAPPRPRLIRNNSSSLASQSAGSAGDADPDAAFKKAVDVPRLNSYKKSSRSLSMTSSLHKTASASTTQKTYHFDEDETLREVTSVKSNSRQLSFTSTINIEDSSMKLSTDSERPAKRSKPSMEFQGLKLTVPKKIKPLLRKTVSNMDSMNHRSASSPVVLTMEQERVVNLIVKKRTNVFYTGSAGTGKSVILQTIIRQLSSLYGKESIAITASTGLAAVTIGGSTLHKWSGIGIGNKTIDQLVKKIQSQKDLLAAWRYTKVLIIDEISMVDGNLLDKLEQIARRIRKNDDPFGGIQLVLTGDFFQLPPVAKKDEHNVVKFCFESEMWKRCIQKTILLTKVFRQQDNKLIDILNAIRYGELTVDIAKTIRNLNRDIDYADGIAPTELYATRREVELSNVKKLQSLPGDLYEFKAVDNAPERYQAILDSSLMVEKVVALKEDAQVMMLKNKPDVELVNGSLGKVLFFVTESLVVKMKEIYKIVDDEVVMDMRLVSRVIGNPLLKESKEFRQDLNARPLARLERLKILINYAVKISPHKEKFPYVRWTVGKNKYIHELMVPERFPIDIPRENVGLERTQIPLMLCWALSIHKAQGQTIQRLKVDLRRIFEAGQVYVALSRAVTMDTLQVLNFDPGKIRTNERVKDFYKRLETLK
# notes: Plasmid pOO16; also called 3FLAG-TEV-RRM3-6A; source: S. cerevisiae strain yOO8, purified (anti-FLAG M2 resin, HiTrap heparin); not shown: 3FLAG, N-terminal, kept
# B2: Rrm3-CR (Rrm3 F89D, Q93A, F96K, D99K, E104K) (enzyme, S. cerevisiae, UniProt P38766 1-723, looked up)
# chain: MFRSHASGNKKQWSKRSSNGSTPAASASGSHAYRQQTLSSFFMGCGKKSAAASKNSTTIIDLESGDEGNRNITAPPRPRLIRNNSSSLDSQSAGSKGDKDPDAKFKKLVDVPRLNSYKKSSRSLSMTSSLHKTASASTTQKTYHFDEDETLREVTSVKSNSRQLSFTSTINIEDSSMKLSTDSERPAKRSKPSMEFQGLKLTVPKKIKPLLRKTVSNMDSMNHRSASSPVVLTMEQERVVNLIVKKRTNVFYTGSAGTGKSVILQTIIRQLSSLYGKESIAITASTGLAAVTIGGSTLHKWSGIGIGNKTIDQLVKKIQSQKDLLAAWRYTKVLIIDEISMVDGNLLDKLEQIARRIRKNDDPFGGIQLVLTGDFFQLPPVAKKDEHNVVKFCFESEMWKRCIQKTILLTKVFRQQDNKLIDILNAIRYGELTVDIAKTIRNLNRDIDYADGIAPTELYATRREVELSNVKKLQSLPGDLYEFKAVDNAPERYQAILDSSLMVEKVVALKEDAQVMMLKNKPDVELVNGSLGKVLFFVTESLVVKMKEIYKIVDDEVVMDMRLVSRVIGNPLLKESKEFRQDLNARPLARLERLKILINYAVKISPHKEKFPYVRWTVGKNKYIHELMVPERFPIDIPRENVGLERTQIPLMLCWALSIHKAQGQTIQRLKVDLRRIFEAGQVYVALSRAVTMDTLQVLNFDPGKIRTNERVKDFYKRLETLK
# notes: Plasmid pOO15; also called 3FLAG-TEV-RRM3-CR; source: S. cerevisiae strain yOO9, purified (anti-FLAG M2 resin, HiTrap heparin); not shown: 3FLAG, N-terminal, kept
# B3: Rrm3Δ86-110 (enzyme, S. cerevisiae, UniProt P38766 1-723, looked up)
# chain: MFRSHASGNKKQWSKRSSNGSTPAASASGSHAYRQQTLSSFFMGCGKKSAAASKNSTTIIDLESGDEGNRNITAPPRPRLIRNNSVPRLNSYKKSSRSLSMTSSLHKTASASTTQKTYHFDEDETLREVTSVKSNSRQLSFTSTINIEDSSMKLSTDSERPAKRSKPSMEFQGLKLTVPKKIKPLLRKTVSNMDSMNHRSASSPVVLTMEQERVVNLIVKKRTNVFYTGSAGTGKSVILQTIIRQLSSLYGKESIAITASTGLAAVTIGGSTLHKWSGIGIGNKTIDQLVKKIQSQKDLLAAWRYTKVLIIDEISMVDGNLLDKLEQIARRIRKNDDPFGGIQLVLTGDFFQLPPVAKKDEHNVVKFCFESEMWKRCIQKTILLTKVFRQQDNKLIDILNAIRYGELTVDIAKTIRNLNRDIDYADGIAPTELYATRREVELSNVKKLQSLPGDLYEFKAVDNAPERYQAILDSSLMVEKVVALKEDAQVMMLKNKPDVELVNGSLGKVLFFVTESLVVKMKEIYKIVDDEVVMDMRLVSRVIGNPLLKESKEFRQDLNARPLARLERLKILINYAVKISPHKEKFPYVRWTVGKNKYIHELMVPERFPIDIPRENVGLERTQIPLMLCWALSIHKAQGQTIQRLKVDLRRIFEAGQVYVALSRAVTMDTLQVLNFDPGKIRTNERVKDFYKRLETLK
# notes: Plasmid pOO14; also called 3FLAG-TEV RRM3-∆86-110; source: S. cerevisiae strain yOO7, purified (anti-FLAG M2 resin, HiTrap heparin); not shown: 3FLAG, N-terminal, kept
# Molecular target: T1, GINS tetramer (Sld5, Psf1, Psf2, Psf3), …
# Test: co-IP; purified proteins mixed: 10 nM FLAG-Rrm3 with 15 nM GINS, 10 min on ice; anti-FLAG M2 magnetic beads; 25 mM Hepes-KOH pH 7.6, 200 mM KOAc, 0.02% NP-40-S, 0.1 mg/mL BSA, 1 mM DTT, 10 mM Mg(OAc)2; immunoblotting
# Settings: both partners purified
row,Binder,binding result
1,B1,binds
2,B2,binds
3,B3,binds
